Measurements published in EP2045266A1, “Methods for treating and diagnosing a cancer secreting cath-D or Alzheimer's disease” (priority 2007, dated 2009).

Target: M6P receptors
Assay: cell-based or functional assay

Sequence of pro-cath-D (52 kDa precursor of human cathepsin D), P07339 21-412 (enzyme) (P07339 21-412 limits assumed): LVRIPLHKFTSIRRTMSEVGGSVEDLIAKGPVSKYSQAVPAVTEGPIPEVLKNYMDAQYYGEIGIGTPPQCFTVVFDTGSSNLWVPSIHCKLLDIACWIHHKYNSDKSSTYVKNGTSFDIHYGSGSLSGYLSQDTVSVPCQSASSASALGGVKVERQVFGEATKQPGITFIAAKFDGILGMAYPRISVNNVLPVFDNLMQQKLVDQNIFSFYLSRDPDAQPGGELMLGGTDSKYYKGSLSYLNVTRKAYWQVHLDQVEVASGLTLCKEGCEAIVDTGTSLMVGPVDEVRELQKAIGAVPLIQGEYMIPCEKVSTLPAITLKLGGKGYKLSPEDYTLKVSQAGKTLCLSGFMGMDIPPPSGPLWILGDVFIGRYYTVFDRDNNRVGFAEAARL

decrease in internalization of labelled pro-cath-D by HMF fibroblasts over 3 h with excess soluble M6P (10 mM): 82%
Substance: pro-cath-D (52 kDa precursor of human cathepsin D), P07339 21-412 (enzyme)
